This is an account of results in patent publication US7179650 (University of Texas, dated 2007).

B1: Sentrin-1 with substitution of Ala-Ala for Gly-Gly (yeast two-hybrid) (other)
chain: MSDQEAKPSTEDLGDKKQGEYIKLKVIGQDSSEIHFKVKMTTHLKKLKESYCQRQGVPMNSLRFLFEGQRIADNHTPKELGMEEEDVIEVYQEQTAAHSTV
notes: not shown: GAL4 fusion domain of the two-hybrid vector
B2: The N-terminal 23 amino acids of sentrin-1 (yeast two-hybrid) (peptide)
chain: MSDQEAKPSTEDLGDKKQGEYIK
notes: Range worked out from the words: the N-terminal 23 amino acids; also called sentrin-1 (1-23); not shown: GAL4 fusion domain of the two-hybrid vector
B3: sentrin-1 (1-70) (yeast two-hybrid) (other)
chain: MSDQEAKPSTEDLGDKKQGEYIKLKVIGQDSSEIHFKVKMTTHLKKLKESYCQRQGVPMNSLRFLFEGQR
notes: also called deletion of the C-terminal 31 amino acids; not shown: GAL4 fusion domain of the two-hybrid vector
B4: sentrin-1 (24-101) (yeast two-hybrid) (other)
chain: LKVIGQDSSEIHFKVKMTTHLKKLKESYCQRQGVPMNSLRFLFEGQRIADNHTPKELGMEEEDVIEVYQEQTGGHSTV
notes: also called deletion of the N terminal 23 amino acids; not shown: GAL4 fusion domain of the two-hybrid vector
B5: UbCH6 (yeast two-hybrid) (enzyme, human, UniProt P51965 1-193, looked up)
chain: MSDDDSRASTSSSSSSSSNQQTEKETNTPKKKESKVSMSKNSKLLSTSAKRIQKELADITLDPPPNCSAGPKGDNIYEWRSTILGPPGSVYEGGVFFLDITFTPEYPFKPPKVTFRTRIYHCNINSQGVICLDILKDNWSPALTISKVLLSICSLLTDCNPADPLVGSIATQYMTNRAEHDRMARQWTKRYAT
notes: as for B1
B6: E2-EPF (yeast two-hybrid) (enzyme, human, UniProt Q16763 1-222, looked up)
chain: MNSNVENLPPHIIRLVYKEVTTLTADPPDGIKVFPNEEDLTDLQVTIEGPEGTPYAGGLFRMKLLLGKDFPASPPKGYFLTKIFHPNVGANGEICVNVLKRDWTAELGIRHVLLTIKCLLIHPNPESALNEEAGRLLLENYEEYAARARLLTEIHGGAGGPSGRAEAGRALASGTEASSTDPGAPGGPGGAEGPMAKKHAGERDKKLAAKKKTDKKRALRRL
notes: as for B1

The first experiment concerns the target T1, Full-length human Ubc9 in pGAD424 (GAL4 activation domain fusion) (human, UniProt P04386 768-881; P63279 1-158).
T1 construct: also called human ubiquitin conjugating enzyme
Kind of experiment: yeast two-hybrid.
B1: the binding result is “no binding”.

In the case of B2, the binding result is recorded as “no binding”. The same measure, in the same setting: to B3 belongs “no binding”; to B4, “binds”.

In the next experiment the target is T2, Gal-4-sentrin-1 (pGBT9-sentrin-1, full-length sentrin-1 fused to the GAL4 DNA-binding domain) (human, UniProt P04386 1-147 (Saccharomyces cerevisiae entry)).
T2 construct: also called wild type sentrin-1; sentrin-1 bait
Kind of experiment: yeast two-hybrid.
For B5, the binding result is on record as “no binding”. B6: the binding result is “no binding”.
